The target of this assay is T1, purified STIL[N] (aa1-1018) (human, UniProt Q15468 1-1018).
T1 sequence (looked up): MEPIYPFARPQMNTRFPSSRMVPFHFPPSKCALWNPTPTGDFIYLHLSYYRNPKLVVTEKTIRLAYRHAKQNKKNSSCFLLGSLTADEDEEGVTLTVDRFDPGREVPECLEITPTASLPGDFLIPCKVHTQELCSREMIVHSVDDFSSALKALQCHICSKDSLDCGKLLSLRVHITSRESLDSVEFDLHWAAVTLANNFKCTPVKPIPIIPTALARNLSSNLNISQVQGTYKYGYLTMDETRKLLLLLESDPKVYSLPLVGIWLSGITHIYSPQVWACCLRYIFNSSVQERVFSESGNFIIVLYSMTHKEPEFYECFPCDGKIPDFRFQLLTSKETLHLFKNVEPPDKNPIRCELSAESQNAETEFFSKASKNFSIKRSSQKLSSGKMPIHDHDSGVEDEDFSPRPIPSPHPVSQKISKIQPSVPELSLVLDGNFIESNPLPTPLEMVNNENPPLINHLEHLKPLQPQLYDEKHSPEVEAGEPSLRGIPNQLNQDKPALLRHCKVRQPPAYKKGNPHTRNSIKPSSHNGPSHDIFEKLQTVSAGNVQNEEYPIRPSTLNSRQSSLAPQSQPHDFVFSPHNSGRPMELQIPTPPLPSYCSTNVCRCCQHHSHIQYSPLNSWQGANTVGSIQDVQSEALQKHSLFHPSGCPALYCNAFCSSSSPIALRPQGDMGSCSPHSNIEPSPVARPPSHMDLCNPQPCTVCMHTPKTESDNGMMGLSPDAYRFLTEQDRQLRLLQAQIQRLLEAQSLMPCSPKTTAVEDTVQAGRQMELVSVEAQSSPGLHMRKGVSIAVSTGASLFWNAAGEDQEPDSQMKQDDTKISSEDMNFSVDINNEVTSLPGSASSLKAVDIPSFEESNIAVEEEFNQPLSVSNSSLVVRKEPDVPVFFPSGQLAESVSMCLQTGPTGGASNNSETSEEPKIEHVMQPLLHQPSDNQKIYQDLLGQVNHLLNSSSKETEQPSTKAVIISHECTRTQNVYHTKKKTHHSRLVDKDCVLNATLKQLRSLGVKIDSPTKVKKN
Nature of the assay: pull-down; GST-RBM14 fragments retained on Glutathione sepharose beads, incubated with ~5 μg bacterially purified STIL[N] for 2 h at 4°C in lysis buffer; SDS-PAGE, SimplyBlue Safe stain. The conditions noted are these: both partners purified.

The record followed here is article PMC4291483 (The EMBO Journal, 2014).

B1: GST-RBM14[C] (domain or fragment, human, UniProt Q96PK6 151-669, looked up)
chain: QKKGPGLAVQSGDKTKKPGAGDTAFPGTGGFSATFDYQQAFGNSTGGFDGQARQPTPPFFGRDRSPLRRSPPRASYVAPLTAQPATYRAQPSVSLGAAYRAQPSASLGVGYRTQPMTAQAASYRAQPSVSLGAPYRGQLASPSSQSAAASSLGPYGGAQPSASALSSYGGQAAAASSLNSYGAQGSSLASYGNQPSSYGAQAASSYGVRAAASSYNTQGAASSLGSYGAQAASYGAQSAASSLAYGAQAASYNAQPSASYNAQSAPYAAQQAASYSSQPAAYVAQPATAAAYASQPAAYAAQATTPMAGSYGAQPVVQTQLNSYGAQASMGLSGSYGAQSAAAATGSYGAAAAYGAQPSATLAAPYRTQSSASLAASYAAQQHPQAAASYRGQPGNAYDGAGQPSAAYLSMSQGAVANANSTPPPYERTRLSPPRASYDDPYKKAVAMSKRYGSDRRLAELSDYRRLSESQLSFRRSPTKSSLDYRRLPDAHSDYARYSGSYNDYLRAAQMHSGYQRRM
With B1, the binding result was “binds”.
